Data from patent US20090324601A1 (published 2009).

Assays:
[1] = biological target: T1, PDGFR-alpha on human osteosarcoma MG-63 cells (human, UniProt P16234 24-1089); assay: cell-based or functional assay
[2] = biological target: T2, murine PDGFRa on NIH3T3 cells (murine, UniProt P26618 25-1089); assay: FACS on NIH3T3 cells, 10 ug/ml antibody, goat anti-human IgG Cy5
T2 construct: whole, on cells; also called mouse PDGFR-alpha

PDGFR-beta = PDGFR-beta (UniProt P09619 33-530, limits assumed); assay: method not described
PDGFR-beta, sequence (P09619 33-530 limits assumed): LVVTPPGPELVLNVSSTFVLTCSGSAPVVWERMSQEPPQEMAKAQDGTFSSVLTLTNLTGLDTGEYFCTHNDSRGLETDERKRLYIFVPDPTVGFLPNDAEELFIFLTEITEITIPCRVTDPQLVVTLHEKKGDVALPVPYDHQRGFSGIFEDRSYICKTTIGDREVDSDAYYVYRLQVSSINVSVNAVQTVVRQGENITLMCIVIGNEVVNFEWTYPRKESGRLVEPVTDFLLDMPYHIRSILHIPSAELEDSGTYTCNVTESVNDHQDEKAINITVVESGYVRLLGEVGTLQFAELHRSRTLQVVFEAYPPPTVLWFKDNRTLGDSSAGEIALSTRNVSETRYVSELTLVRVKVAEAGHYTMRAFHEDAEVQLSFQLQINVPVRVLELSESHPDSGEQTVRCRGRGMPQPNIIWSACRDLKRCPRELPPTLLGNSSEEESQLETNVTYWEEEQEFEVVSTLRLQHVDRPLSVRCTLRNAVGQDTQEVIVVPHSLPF

FLT3 = FLT3 (UniProt P36888 27-541, limits assumed); assay: method not described
c-kit = c-kit (UniProt P10721 26-520, limits assumed); assay: method not described
c-kit, sequence (P10721 26-520 limits assumed): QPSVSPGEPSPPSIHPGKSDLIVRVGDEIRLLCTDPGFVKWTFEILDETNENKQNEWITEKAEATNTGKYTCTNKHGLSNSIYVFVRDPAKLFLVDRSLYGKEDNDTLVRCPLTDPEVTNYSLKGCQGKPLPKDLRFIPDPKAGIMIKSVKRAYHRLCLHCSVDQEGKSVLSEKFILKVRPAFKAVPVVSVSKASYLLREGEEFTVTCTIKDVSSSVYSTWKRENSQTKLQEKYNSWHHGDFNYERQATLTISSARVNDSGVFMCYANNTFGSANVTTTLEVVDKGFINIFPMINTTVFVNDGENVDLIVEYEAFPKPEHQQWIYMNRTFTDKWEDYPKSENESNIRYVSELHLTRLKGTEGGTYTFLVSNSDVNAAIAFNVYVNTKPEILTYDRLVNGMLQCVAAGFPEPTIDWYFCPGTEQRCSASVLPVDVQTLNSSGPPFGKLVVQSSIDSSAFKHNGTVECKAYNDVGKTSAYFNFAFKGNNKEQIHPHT

CSF-1R = CSF-1R (UniProt P07333 20-512, limits assumed); assay: method not described
CSF-1R, sequence (P07333 20-512 limits assumed): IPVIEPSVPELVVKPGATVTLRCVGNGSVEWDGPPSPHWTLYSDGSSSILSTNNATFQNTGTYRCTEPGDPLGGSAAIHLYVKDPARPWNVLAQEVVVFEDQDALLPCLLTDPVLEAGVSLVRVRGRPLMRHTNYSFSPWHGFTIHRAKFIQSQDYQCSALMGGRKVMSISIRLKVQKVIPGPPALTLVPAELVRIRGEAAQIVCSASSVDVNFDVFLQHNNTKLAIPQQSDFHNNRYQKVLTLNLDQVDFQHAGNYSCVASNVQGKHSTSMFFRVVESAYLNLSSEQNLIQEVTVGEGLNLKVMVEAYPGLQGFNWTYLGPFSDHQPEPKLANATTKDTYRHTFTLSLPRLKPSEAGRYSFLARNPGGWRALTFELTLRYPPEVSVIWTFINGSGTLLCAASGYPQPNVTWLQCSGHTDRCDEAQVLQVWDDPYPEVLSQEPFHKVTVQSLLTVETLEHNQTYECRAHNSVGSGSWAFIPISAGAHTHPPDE

[3] = biological target: T3, Mouse PDGFRa on NIH3T3 cells (mouse, UniProt P26618 25-1089); assay: FACS on NIH3T3 cells, 10 ug/ml antibody
T3 construct: whole, on cells; also called endogenous PDGFRa of NIH3T3 murine fibroblasts
T3 sequence (P26618 25-1089): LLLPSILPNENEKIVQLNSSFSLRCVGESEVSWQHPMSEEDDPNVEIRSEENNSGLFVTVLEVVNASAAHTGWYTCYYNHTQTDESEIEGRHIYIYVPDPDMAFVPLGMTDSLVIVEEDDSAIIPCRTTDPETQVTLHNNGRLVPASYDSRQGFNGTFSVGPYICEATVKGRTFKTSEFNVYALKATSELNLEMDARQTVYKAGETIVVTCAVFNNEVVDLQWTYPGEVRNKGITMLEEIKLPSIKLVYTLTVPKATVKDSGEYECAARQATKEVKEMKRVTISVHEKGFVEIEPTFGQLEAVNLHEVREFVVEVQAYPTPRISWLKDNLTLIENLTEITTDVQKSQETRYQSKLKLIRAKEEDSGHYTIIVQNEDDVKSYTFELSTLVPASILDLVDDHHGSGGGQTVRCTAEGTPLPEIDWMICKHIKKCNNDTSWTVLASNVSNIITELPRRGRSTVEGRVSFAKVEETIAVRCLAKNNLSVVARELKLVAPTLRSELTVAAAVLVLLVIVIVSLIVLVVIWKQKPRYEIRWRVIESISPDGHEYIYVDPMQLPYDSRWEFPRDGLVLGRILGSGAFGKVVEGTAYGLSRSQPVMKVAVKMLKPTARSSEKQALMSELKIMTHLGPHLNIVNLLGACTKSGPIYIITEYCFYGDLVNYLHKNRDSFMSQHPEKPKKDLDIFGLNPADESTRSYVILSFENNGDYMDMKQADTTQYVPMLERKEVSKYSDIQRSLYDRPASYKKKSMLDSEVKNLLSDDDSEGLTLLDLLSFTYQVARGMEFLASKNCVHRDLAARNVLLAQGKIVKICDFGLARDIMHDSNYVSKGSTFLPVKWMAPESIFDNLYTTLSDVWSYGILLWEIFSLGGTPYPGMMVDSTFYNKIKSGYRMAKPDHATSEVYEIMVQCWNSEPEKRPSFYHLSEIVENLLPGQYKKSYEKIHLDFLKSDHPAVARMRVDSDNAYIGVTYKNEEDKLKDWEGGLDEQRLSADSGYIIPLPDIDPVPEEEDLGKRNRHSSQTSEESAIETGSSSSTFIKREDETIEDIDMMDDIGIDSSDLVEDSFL

[4] = biological target: T1, PDGFR-alpha on human osteosarcoma MG-63 …; assay: cell-based or functional assay; remark: listed apart in the source
[5] = biological target: T1, PDGFR-alpha on human osteosarcoma MG-63 …; assay: FACS titration on MG-63 cells, 4 C, Cy5 goat anti-human detection
[6] = biological target: T4, Recombinant human sPDGFR-alpha (R&D catalog# 322-PR/CF) (human, UniProt P16234 24-528); assay: soluble PDGFRa binding ELISA, plate coated with recombinant human PDGFR-alpha
T4 construct: extracellular domain; Bought reagent; also called soluble PDGFRa; recombinant soluble PDGFR-alpha extracellular domain
T4 sequence (P16234 24-528): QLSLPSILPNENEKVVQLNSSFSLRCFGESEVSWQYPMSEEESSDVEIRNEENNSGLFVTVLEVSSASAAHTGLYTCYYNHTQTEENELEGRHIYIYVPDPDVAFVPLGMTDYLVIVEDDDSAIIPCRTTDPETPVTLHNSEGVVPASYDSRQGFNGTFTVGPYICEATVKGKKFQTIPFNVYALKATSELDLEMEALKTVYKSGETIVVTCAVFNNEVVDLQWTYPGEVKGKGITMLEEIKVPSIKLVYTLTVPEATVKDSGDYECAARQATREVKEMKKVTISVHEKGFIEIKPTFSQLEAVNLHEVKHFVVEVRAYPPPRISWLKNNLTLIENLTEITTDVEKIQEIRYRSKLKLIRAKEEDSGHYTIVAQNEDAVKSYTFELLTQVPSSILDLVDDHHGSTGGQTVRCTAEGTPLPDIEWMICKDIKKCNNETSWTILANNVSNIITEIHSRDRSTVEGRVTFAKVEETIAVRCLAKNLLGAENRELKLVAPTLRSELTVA

[7] = biological target: T4, Recombinant human sPDGFR-alpha (R&D …); assay: Biacore T100 SPR, 22 C, mAb immobilised on CM5, sPDGFR-alpha injected, 1:1 fit

T1 sequence (P16234 24-1089): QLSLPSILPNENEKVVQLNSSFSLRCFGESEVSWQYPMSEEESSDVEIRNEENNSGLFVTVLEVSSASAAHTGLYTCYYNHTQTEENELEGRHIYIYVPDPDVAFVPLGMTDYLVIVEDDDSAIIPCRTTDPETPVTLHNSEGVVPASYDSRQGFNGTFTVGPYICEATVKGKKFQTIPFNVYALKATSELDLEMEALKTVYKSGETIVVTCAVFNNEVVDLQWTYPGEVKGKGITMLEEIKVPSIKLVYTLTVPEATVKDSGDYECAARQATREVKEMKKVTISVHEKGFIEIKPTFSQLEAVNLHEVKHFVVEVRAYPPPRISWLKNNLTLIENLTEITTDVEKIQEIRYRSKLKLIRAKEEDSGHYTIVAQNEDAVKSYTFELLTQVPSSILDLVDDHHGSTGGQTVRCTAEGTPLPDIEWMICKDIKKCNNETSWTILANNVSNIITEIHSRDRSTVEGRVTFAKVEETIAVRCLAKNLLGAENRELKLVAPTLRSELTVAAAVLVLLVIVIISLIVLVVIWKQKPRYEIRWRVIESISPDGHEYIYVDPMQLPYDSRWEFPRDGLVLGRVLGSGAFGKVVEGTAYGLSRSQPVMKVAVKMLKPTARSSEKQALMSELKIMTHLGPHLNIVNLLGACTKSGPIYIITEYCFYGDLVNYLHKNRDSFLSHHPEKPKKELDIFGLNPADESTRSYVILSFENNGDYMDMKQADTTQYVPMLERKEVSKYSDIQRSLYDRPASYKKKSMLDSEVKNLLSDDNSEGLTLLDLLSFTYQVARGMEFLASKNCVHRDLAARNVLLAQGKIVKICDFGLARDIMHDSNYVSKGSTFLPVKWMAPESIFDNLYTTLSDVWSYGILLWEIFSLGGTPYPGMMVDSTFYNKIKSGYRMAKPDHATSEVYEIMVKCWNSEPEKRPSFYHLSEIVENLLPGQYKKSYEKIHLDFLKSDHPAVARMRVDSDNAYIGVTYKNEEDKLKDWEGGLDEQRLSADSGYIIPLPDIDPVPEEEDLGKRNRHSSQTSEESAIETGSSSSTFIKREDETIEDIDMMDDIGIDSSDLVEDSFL
T2 sequence (P26618 25-1089): as the sequence (P26618 25-1089) above

Row | Proliferation Assay: IC50 ng/ml (1-6-06) [1] [ng/mL] | Proliferation Assay: IC50 ng/ml (1-23-06) [1] [ng/mL] | pTyr Assay: % Inhibition @ 2 µg/ml [1] [%] | binding result [2] | binding result (PDGFR-beta) | binding result (FLT3) | binding result (c-kit) | binding result (CSF-1R) | binding result [3] | Proliferation Assay: IC50 (1-6-06) [1] [nM] | Proliferation Assay: IC50 (1-23-06) [1] [nM] | PTYR Assay IC50 [4] [µg/mL] | Kd [5] [nM] | IC50 [6] [µg/mL] | Kd [7] [nM] | koff [7] [s⁻¹] | kon [7] [M⁻¹ s⁻¹] | Binder
1 | 755 | 982 | 97 | binds |  |  |  |  |  |  |  |  |  |  |  |  |  | 2.1623.2 (antibody, V domains shown) VH: QVQLVESGGGLVKPGGSLRLSCAASGFTFSDYYMNWIRQAPGKGLEWVSFISSSGSTIYYADSVKGRFTISRDNAKNSLYLQMNSLRAEDTAVYYCARDGHIAARGMDVWGQGTTVTVSS VL: DIQMTQSPSSLSASVGDRVTITCRASQSFSRYINWYQQKPGKAPKLLIYAASSLQGGVPSRFSGSGSGTDFTLAISSLQPEDFATYYCQQTYSTPPITFGQGTRLEIK
2 |  |  |  |  | no binding | no binding | no binding | no binding | binds |  |  |  |  |  |  |  |  | 2.1853.3 (antibody, V domains shown, Variable regions only) VH: QVQLVESGGGLVKPGGSLRLSCAASGFTFSDYYMNWIRQAPGKGLEWVSYISSSGSIIYYADSVKGRFTISRDNAKNSLYLQMNSLRAEDTAVYYCARDGRIVARGMDVWGQGTTVTVSS VL: DIQMTQSPSSLCASVGDRVTITCRASRSITRYLNWYQQKPGKAPKLLIYGASSLQSGVPSRFSGSGSGTDFTLTISSLQPEDFATYYCQQSYSTPPITFGQGTRLEIK
3 | 1120 | 2680 | 98 | binds |  |  |  |  |  |  |  |  |  |  |  |  |  | 2.1853.3 (antibody, V domains shown) VH: QVQLVESGGGLVKPGGSLRLSCAASGFTFSDYYMNWIRQAPGKGLEWVSYISSSGSIIYYADSVKGRFTISRDNAKNSLYLQMNSLRAEDTAVYYCARDGRIVARGMDVWGQGTTVTVSS VL: DIQMTQSPSSLCASVGDRVTITCRASRSITRYLNWYQQKPGKAPKLLIYGASSLQSGVPSRFSGSGSGTDFTLTISSLQPEDFATYYCQQSYSTPPITFGQGTRLEIK
4 | 67.3 | 56.1 | 100 | binds |  |  |  |  |  | 0.45 | 0.37 | 0.028 | 0.328 | 0.038 | 0.05 | 2.59e-05 | 516000 | 2.175.3 (antibody, V domains shown, identified by its values; also called mAb 2.175.3) VH: QVHLVESGGGLVKPGGSLRLSCAASGFTFSDYYMHWIRQAPGKGLEWVSYISRSGSLIYYVDSVKGRFTISRDNAKNSLNLQMNSLRAEDTAVYYCARGGPYSGSPFDYWGQGTLVTVSS VL: DIQMTQSPSSLSASVGDRVTITCRPSQRISRYLNWYQQKPGKAPKFLIYAASSLPSGVPSRFSGSGSGTDFTLTISTLQPEDFATYYCQQSYSTPPWTFGQGTKVEIK
